B1: Ab 2-7 scFv (scFv, V domains shown)
VH: QVTLKESGPTRVKPTQTLTLTCTFSGFSLSTTGVGVGWIRQPPGKALEWLALIYWNDDKRYSPSLKSRLTITKDTSKNQVVLTMTNMDPVDTATYYCARISGSGYFYPFDIWGQGTTVTVSS
VL: NFMLTQPHSVSESPGKTVTISCTRSSGSIASNYVQWYQQRPGSSPTTVIYEDNQRPSGVPDRFSGSIDSSSNSASLTISGLKAEDEADYYCQSYDSSSLWVFGGGTKLTVL
B2: Ab 2-7 scFv-Fc (Fc fusion)
VH: B1 VH
VL: B1 VL

Tests used:
[1] = molecular target: SARS-CoV-2 receptor binding domain (RBD), biotinylated (SARS-CoV-2, Wuhan-type, UniProt P0DTC2, biotin (BirA, on the Avi tag)); test: BLI; settings: both partners purified
[2] = molecular target: T1, Tor2 SARS-CoV spike (Toronto, 2003) (SARS-CoV, strain Tor2); test: ELISA; antibody at 2 ug/ml against Tor2 SARS-CoV spike
T1 construct: also called Tor2 spike protein

Row | Binder | Kd [1] [nM] | koff [1] [s⁻¹] | kon [1] [M⁻¹ s⁻¹] | binding result [2]
1 | B1 | 0.107 | 4.81e-05 | 452000 | –
2 | B2 | – | – | – | binds

Reference: paper PMC9528872 (Nature Communications, 2022)
